Data as given in US20100303819A1.

Key:
Assay in all cases: control-mAb-coated microbeads on monocyte-derived macrophages (which carry hDCL-1, MMR and DEC-205), confocal microscopy
[1] = target: human DCL-1 (native, on human leukocytes) (human) (UniProt Q8IX05)
[2] = target: DEC-205 (CD205) on human monocyte-derived macrophages (human) (UniProt O60449)
[3] = target: MMR/CD206 on human monocyte-derived macrophages (human) (UniProt P22897)

Measured: microbeads bound per cell

UniProt Q8IX05, sequence (Q8IX05 23-232 limits assumed): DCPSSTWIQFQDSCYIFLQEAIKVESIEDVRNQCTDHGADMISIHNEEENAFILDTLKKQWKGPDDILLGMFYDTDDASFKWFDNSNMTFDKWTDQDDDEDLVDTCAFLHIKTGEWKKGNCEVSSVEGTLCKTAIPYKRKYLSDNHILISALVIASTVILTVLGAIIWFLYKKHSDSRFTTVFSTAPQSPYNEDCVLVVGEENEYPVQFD
UniProt P22897, sequence (P22897 19-1456): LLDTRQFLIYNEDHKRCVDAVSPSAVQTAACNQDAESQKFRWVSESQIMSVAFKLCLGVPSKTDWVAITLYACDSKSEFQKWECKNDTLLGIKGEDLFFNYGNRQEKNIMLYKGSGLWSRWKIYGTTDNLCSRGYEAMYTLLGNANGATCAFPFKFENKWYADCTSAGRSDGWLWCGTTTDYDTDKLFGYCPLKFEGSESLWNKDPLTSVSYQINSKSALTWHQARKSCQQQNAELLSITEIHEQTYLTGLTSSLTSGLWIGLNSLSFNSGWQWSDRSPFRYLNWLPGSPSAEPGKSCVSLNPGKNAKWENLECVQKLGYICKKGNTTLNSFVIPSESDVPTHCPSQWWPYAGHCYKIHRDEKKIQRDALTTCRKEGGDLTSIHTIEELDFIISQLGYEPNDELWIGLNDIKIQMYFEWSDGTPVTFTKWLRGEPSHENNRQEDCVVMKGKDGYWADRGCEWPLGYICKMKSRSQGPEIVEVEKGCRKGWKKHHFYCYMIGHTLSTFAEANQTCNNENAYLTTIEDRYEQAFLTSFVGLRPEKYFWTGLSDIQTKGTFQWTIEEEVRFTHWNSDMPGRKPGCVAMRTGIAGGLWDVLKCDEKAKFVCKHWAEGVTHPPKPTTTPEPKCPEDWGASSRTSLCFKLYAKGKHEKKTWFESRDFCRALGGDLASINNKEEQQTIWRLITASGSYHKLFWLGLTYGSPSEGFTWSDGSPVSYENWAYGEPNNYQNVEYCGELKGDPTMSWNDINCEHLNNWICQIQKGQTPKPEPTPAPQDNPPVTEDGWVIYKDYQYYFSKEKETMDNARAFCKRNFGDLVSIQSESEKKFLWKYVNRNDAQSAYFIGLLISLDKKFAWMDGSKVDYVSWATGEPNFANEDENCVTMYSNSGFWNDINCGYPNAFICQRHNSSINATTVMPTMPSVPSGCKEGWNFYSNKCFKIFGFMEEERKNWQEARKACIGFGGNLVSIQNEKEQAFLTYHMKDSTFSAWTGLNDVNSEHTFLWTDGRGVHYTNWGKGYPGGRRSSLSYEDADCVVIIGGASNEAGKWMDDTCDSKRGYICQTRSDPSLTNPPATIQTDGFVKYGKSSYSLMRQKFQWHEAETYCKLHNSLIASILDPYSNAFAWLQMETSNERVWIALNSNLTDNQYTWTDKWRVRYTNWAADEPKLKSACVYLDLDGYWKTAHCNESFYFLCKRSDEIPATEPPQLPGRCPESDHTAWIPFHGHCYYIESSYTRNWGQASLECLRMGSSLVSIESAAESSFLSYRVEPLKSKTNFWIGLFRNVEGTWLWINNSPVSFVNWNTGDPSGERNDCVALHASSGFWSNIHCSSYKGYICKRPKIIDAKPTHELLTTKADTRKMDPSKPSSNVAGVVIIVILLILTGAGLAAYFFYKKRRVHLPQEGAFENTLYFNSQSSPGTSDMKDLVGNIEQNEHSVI
UniProt O60449, sequence (O60449 28-1722): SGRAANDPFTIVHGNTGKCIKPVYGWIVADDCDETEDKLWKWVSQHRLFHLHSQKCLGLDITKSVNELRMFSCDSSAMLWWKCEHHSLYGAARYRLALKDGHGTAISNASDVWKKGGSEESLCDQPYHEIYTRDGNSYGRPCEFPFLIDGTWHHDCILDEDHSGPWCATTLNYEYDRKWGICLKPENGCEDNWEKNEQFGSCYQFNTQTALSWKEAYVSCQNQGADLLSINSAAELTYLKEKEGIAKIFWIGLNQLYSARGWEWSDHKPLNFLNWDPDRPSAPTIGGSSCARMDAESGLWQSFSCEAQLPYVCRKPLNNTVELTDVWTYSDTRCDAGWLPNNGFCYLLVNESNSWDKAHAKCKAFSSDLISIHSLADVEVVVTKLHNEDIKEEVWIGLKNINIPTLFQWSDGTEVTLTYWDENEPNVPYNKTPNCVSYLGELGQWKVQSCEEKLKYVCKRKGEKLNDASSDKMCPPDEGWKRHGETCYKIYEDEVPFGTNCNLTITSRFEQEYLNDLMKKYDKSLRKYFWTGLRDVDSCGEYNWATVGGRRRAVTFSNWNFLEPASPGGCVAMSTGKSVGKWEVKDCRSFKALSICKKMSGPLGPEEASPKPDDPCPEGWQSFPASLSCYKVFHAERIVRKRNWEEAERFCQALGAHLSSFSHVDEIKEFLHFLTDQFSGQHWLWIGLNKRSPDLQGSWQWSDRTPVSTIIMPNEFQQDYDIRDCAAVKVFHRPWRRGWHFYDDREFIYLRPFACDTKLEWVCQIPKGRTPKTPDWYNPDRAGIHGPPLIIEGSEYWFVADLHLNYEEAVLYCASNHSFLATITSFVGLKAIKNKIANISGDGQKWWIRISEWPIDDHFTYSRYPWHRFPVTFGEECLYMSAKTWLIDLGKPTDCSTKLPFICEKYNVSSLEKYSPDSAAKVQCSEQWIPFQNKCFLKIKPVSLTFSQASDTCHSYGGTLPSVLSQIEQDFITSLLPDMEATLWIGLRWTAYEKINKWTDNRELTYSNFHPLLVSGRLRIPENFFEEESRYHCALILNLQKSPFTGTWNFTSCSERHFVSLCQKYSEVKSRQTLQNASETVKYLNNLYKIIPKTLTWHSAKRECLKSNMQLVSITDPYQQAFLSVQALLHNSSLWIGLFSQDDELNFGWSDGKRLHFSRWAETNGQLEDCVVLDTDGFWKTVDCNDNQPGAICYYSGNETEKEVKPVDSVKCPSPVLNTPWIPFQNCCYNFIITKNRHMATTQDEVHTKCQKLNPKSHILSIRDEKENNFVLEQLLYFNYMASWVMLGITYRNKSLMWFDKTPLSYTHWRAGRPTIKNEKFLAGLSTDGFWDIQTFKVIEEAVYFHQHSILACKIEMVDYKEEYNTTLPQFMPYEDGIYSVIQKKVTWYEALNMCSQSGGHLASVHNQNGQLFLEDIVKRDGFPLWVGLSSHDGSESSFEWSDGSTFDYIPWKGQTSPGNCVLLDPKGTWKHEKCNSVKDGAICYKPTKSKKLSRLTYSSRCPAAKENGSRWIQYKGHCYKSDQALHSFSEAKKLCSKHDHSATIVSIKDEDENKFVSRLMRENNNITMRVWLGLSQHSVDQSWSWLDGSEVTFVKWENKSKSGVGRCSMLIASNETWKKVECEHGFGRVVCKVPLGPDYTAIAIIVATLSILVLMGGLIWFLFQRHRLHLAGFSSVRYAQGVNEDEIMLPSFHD

isotype control mAb 401.21 (antibody)
0.09 beads/cell: all assays above
